Results on 9 molecules are retold here after CN105348390A (BEIJING WISDOMAB BOITECHNOLOGY CO LTD, dated 2016).

Numbering of substitutions follows the chain as printed.

To fix the notation:
B1: S2G1 (scFv)
scFv: QMQLVQSGAEVKKPGSSVKVSCKTSGGTFGSSAIHWVRQAPRQGLEWMGRINPVLGTTNYTQKFHDRLTITADESTTTAYMELRSLRSDDTAVYYCAREGIPMIWGQGTMVTVSSGGGGSGGGGSGGGGSDIQMTQSPSSLSASVGDRVTITCRASQGIHNWLNWYQQKPGKAPKLLIYAASNRASGVPSRFSGSGSGTDFTLTISSLQPEDFATYYCQQSGKQPVTFGQGTKVEIK
notes: also called 克隆S2G1
B2: S3A12 (scFv)
scFv: QVQLVQSGAEVKKPGASVKVSCKASGYAIYNYGISWVRQAPGQGLEWMGWVSYFGGSTTYAQKLQGRGTMTTDPSTSTAYMELRSLRSDDTAVYYCAKGYGMEIWGQGTTVSSGGGGSGGGGSGGGGSDIQMTQSPSSLSASVGDRVTITCRASQNVNNWLDWYQQKPGKAPKLLIYAASTRASGVPSRFSGSGSGTDFTLTISSLQPEDFATYYCQQDRDVPVTFGQGTKVEIK
notes: also called 克隆S3A12
B3: S2F5 (scFv)
scFv: QVQLVQSGAEVKKPGSSVKVSCKASGGTFTGYSIHWVRQAPGQGLEWMGWINPISGSANYAQKFQGRVTITADKSTSTAYMELSSLRSEDTAVYYCARTQNNTGYRGTDYWGQGTLVTVSSGGGGSGGGGSGGGSDIQMTQSPSSLSASVGDRVTITCRASQSVSSYLNWYQQKPGKAPKLLIYGASTRPSGVPSRFSGSGSGTDFTLTISSLQPEDFATYYCQQHADTPTTFGQGTKVEIK
notes: also called 克隆S2F5
B4: S2B8 (scFv)
scFv: QVQLVESGGGLVKPGGSLRLSCAVSGFTFSRHSMNWVRQAPGKGLEWVSSISSGSSNIYYADSVKGRFTISRDNAKNSLYLQMNSLRDEDTAVYYCARGGLGPEYLQHWGQGTLVTVSSGGGGSGGGGSGGGGSSSELTQPASVSGSPGQSITISCTGTSSDIGDNNFVSWYQQYPGKAPKLMIYDVSNRPSGVSNRFSGSKSGNTASLTISGLQAEDEADYYCSSYTSSSTLVFGGGTKVTVLG
notes: also called 克隆S2B8
B5: H4H4-IgG4 (antibody, V domains shown)
VH: QVQLVQSGAEVKKPGASVKVSCKASGYAIYNYGISWVRQAPGQGLEWMGWVSFYNGNTNYAQKLQGRGTMTTDPSTSTAYMELRSLRSDDTAVYYCARGYVMDIWGQGTTVTVSS
VL: DIQMTQSPSSLSASVGDRVTITCRASQSINNWLDWYQQKPGKAPKLLIYAASTRPSGVPSRFSGSGSGTDFTLTISSLQPEDFATYYCQQDQDIPPTFGQGTKVEIKR
B6: H7B12-IgG4 (antibody, V domains shown)
VH: B5 VH with A28T, I29L, Y30N
VL: B5 VL
B7: H8A7-IgG4 (antibody, V domains shown)
VH: B5 VH with I104F
VL: B5 VL
B8: H8F4-IgG4 (antibody, V domains shown)
VH: B5 VH with I29L
VL: B5 VL
B9: Alirocumab (antibody, V domains shown)
VH: EVQLVESGGGLVQPGGSLRLSCAASGFTFNNYAMNWVRQAPGKGLDWVSTISGSGGTTNYADSVKGRFIISRDSSKHTLYLQMNSLRAEDTAVYYCAKDSNWGNFDLWGRGTLVTVSS
VL: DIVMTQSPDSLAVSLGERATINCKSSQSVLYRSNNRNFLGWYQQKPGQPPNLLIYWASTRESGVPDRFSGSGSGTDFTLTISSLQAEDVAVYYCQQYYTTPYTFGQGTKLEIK

T1 sequence (Q8NBP7 other isoform, or with tags, fused parts or gaps): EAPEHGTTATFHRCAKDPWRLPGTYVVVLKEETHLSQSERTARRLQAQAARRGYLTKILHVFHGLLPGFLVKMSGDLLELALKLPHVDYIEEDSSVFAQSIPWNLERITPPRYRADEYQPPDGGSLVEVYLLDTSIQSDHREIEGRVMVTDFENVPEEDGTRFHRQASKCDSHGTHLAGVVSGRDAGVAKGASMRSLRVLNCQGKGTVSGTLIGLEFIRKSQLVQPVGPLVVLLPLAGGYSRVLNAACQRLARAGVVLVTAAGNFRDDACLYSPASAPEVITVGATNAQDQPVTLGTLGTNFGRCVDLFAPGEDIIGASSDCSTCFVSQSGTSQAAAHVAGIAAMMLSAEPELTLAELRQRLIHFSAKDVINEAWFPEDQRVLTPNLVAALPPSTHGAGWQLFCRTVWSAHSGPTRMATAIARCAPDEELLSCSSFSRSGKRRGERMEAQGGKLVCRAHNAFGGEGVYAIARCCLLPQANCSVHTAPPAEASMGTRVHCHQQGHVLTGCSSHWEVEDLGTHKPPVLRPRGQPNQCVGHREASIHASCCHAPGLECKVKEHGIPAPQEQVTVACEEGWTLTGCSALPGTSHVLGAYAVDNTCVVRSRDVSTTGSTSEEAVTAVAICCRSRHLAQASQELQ

One assay addresses T1, 重组huPCSK9-his (人PCSK9, C端His-tag) (human, UniProt Q8NBP7 54-692).
T1 construct: Expressed in HEK293 cells; not shown: C-terminal His-tag
In words: solid-phase panning of scFv phage library on huPCSK9-his.
As for B1, the binding result is reported as “binds”.
With B2, the binding result is “binds”.
In the case of B3, the binding result is given as “binds”.
Same read-out and setting: next, B4: “binds”.

A further assay has as its target T1, 重组huPCSK9-his (人PCSK9, C端His-tag). In words: SPR, Biacore 3000, antibody captured by anti-human Fc on CM5, huPCSK9 as analyte.
B5 showed a Kd of 0.0659 nM, a koff of 4.7e-05 s⁻¹ and a kon of 714000 M⁻¹ s⁻¹.
For the molecule B6, the Kd was determined as 0.0323 nM, the koff stood at 3.26e-05 s⁻¹ and the kon came out at 1.01e+06 M⁻¹ s⁻¹.
The corresponding values for B7 are 0.0648 nM, 4.83e-05 s⁻¹ and 746000 M⁻¹ s⁻¹.
On the same counts, the results for B8 are 0.0675 nM, 4.48e-05 s⁻¹ and 663000 M⁻¹ s⁻¹.
The corresponding values for B9 are 0.0677 nM, 0.000154 s⁻¹ and 2.27e+06 M⁻¹ s⁻¹.
